Molecular target: T1, human VISTA (human, UniProt Q9H7M9 33-194, limits assumed)
T1 construct: The ELISA text says only recombinant VISTA; also called recombinant VISTA
Assay: method not stated (Table 1, column Kd, M)

Binder	Kd [nM]
VSTB59 (antibody, V domains shown) VH: QVQLVQSGAEVKKPGASVKVSCKASGYTFTDYWMHWVRQAPGQGLEWMGAIETSLNYPSYNQKFKGRVTMTRDTSTSTVYMELSSLRSEDTAVYYCARWGIYGNPWFAYWGRGTLVTVSS VL: DIVMTQTPLSLSVTPGQPASISCRASESVDSYVNSFVHWYLQKPGQPPQLLIYRASNLESGVPDRFSGSGSGTDFTLKISRVEAEDVGVYYCQQSNEDPYTFGQGTKLEIKR	0.106
VSTB81 (antibody, V domains shown) VH: QVTLKESGPALVKPTQTLTLTCTFSGFSLSTSGMGVSWIRQPPGKALEWLAHIYWDDDKRYNPSLKSRLTISKDTSKNQVVLTMTNMDPVDTATYYCARRPDYFGSSYVDWGQGTTVTVSS VL: DIVMTQTPLSLSVTPGQPASISCRASESVDTYGNSFMHWYLQKPGQPPQLLIYLASNLDFGVPDRFSGSGSGTDFTLKISRVEAEDVGVYYCQQNNEDPWTFGQGTKLEIKR	0.312
VSTB60 (antibody, V domains shown) VH: QVQLVQSGSELKKPGASVKVSCKASGYTFTNYGMTWVRQAPGQGLEWMGWINTYTGESTYADDFKGRFVFSLDTSVSTAYLQICSLKAEDTAVYYCARDYYGIYVSAYWGQGTLVTVSS VL: DIVMTQTPLSLSVTPGQPASISCRASESVDNYANSFMHWYLQKPGQSPQLLIYRASNLESGVPDRFSGSGSGTDFTLKISRVEAEDVGVYYCQQSHEDPYTFGQGTKLEIKR	0.356
INX901 | VSTB56 (antibody, V domains shown, INX name = the VSTB variable regions with native human IgG2 constant regions; also called INX901 parental) VH: QVQLVQSGAEVKKPGASVKVSCKASGYTFTSYWLHWVRQAPGQGLEWMGYIIPNTLHTDYNQKFKDRVTMTRDTSTSTVYMELSSLRSEDTAVYYCARLDGDYDYALDYWGQGTLVTVSS VL: DIVMTQTPLSLSVTPGQPASISCRASESVEYYGTSFMQWYLQKPGQPPQLLIYTASNVESGVPDRFSGSGSGTDFTLKISRVEAEDVGVYYCQQSRKVPYTFGQGTKLEIK	0.0235
INX906 | VSTB54 (antibody, V domains shown, INX name = the VSTB variable regions with human IgG2 constant regions) VH: QVQLVQSGAEVKKPGASVKVSCKASGYNIKDTYMHWVRQAPGQGLEWMGRIDPTHGYVIYDPKFQGRVTMTRDTSTSTVYMELSSLRSEDTAVYYCARDRFDPYWFLDVWGQGTLVTVSS VL: DIVMTQTPLSLSVTPGQPASISCRASESVEYYGTSLMQWYLQKPGQSPQLLIYDAFNVESGVPDRFSGSGSGTDFTLKISRVEAEDVGVYYCQQSRKVPWTFGQGTKLEIK	0.0253
INX902 | VSTB63 (antibody, V domains shown, INX name = the VSTB variable regions with human IgG2 constant regions) VH: QVQLQESGPGLVKPSETLSLTCAVSGFSITSDFAWNWIRQPPGKGLEWIGYITYSGFTNYNPSLESRVTISVDTSKNQFSLKLSSVTAADTAVYYCARQEYGNYVWYFDVWGQGTLVTVSS VL: DIVMTQTPLSLSVTPGQPASISCRASESVEYYGTSLLQWYLQKPGQPPQLLIYAASNVESGVPDRFSGSGSGTDFTLKISRVEAEDVGVYYCQQSRKVPWTFGQGTKLEIK	0.83
INX908 | VSTB92 (antibody, V domains shown, INX name = the VSTB variable regions with human IgG2 constant regions; also called INX908 parental) VH: QVQLVQSGAEVKKPGASVKVSCKASGYTFANYLIGWVRQAPGQRLEWMGDIYPGGGFISYNEKFKGRVTITRDTSASTAYMELSSLRSEDTAVYYCARRFDYGGYFFDYWGQGTLVTVSS VL: DIVMTQSPLSLPVTPGEPASISCRSSQSIVHSNGNIYLEWYLQKPGQSPQLLIYKVSNRFSGVPDRFSGSGSGTDFTLKISRVEAEDVGVYYCFQGSHVPWTFGQGTKLEIK	0.0934
VSTB78 (antibody, V domains shown) VH: QVQLVQSGAEVKKPGASVKVSCKASGYTFTNYWMHWVRQAPGQGLEWMGYINPSSGYTEYNQKFKDRVTMTRDTSTSTVYMELSSLRSEDTAVYYCARDGGSVLFGYWGQGTTVTVSS VL: DIVMTQSPDSLAVSLGERATINCKSSQSLLNSGIRKNYLAWYQQKPGQPPKLLIYSASTRESGVPDRFSGSGSGTDFTLTISSLQAEDVAVYYCKQSYNLYTFGQGTKLEIKR	1.13
VSTB65 (antibody, V domains shown) VH: QVQLVQSGAEVKKPGASVKVSCKASGYTFTSYWIHWVRQAPGQGLEWMGEINPSNGLTNYNEKFRNRVTMTRDTSTSTVYMELSSLRSEDTAVYYCARSYDYDGDYYAMDYWGQGTLVTVSS VL: DIVMTQSPLSLPVTPGEPASISCRSTQSIVHSNGNTYLEWYLQKPGQSPQLLIYKVSNRFSGVPDRFSGSGSGTDFTLKISRVEAEDVGVYYCFQASHVPWTFGQGTKLEIKR	1.08
INX907 | VSTB66 (antibody, V domains shown, INX name = the VSTB variable regions with human IgG2 constant regions) VH: QVQLVQSGAEVKKPGASVKVSCKASGYPFTGYFMHWVRQAPGQGLEWMGRINPYNGGTVYNQNFNDRVTMTRDTSTSTVYMELSSLRSEDTAVYYCARWTFDGLFMDYWGQGTTVTVSS VL: DVVMTQSPLSLPVTLGQPASISCRASENVDKYGISFMNWFQQRPGQSPRRLIYATSNQGSGVPDRFSGSGSGTDFTLKISRVEAEDVGVYYCQQSKEDPYTFGQGTKLEIK	0.0806
VSTB70 (antibody, V domains shown) VH: EVQLVQSGAEVKKPGATVKISCKVSGYTFSNYWIEWVQQAPGKGLEWMGEILPGSGNVHYNEKFKGRVTITADTSTDTAYMELSSLRSEDTAVYYCATPPHYYGYDYYDVNYWGQGTLVTVSS VL: DVVMTQSPLSLPVTLGQPASISCKSSQSLLDSDGKTYLNWFQQRPGQSPRRLIYLVSELDSGVPDRFSGSGSGTDFTLKISRVEAEDVGVYYCWQGTHFPQTFGQGTKLEIKR	2.23
VSTB74 (antibody, V domains shown) VH: QMQLVQSGPEVKKPGTSVKVSCKASGYIFTDYNIDWVRQARGQRLEWIGDINPKYDSTRYNQKFKGRVTITRDMSTSTAYMELSSLRSEDTAVYYCAADGSSAMDYWGQGTTVTVSS VL: DIVMTQSPDSLAVSLGERATINCKSSQSLLNSGHQKNYLAWYQQKPGQPPKLLIYGASTRESGVPDRFSGSGSGTDFTLTISSLQAEDVAVYYCQNDHRYPLTFGQGTKLEIKR	0.562
INX900 | VSTB50 (antibody, V domains shown, INX name = the VSTB variable regions with human IgG2 constant regions) VH: QVQLVQSGSELKKPGASVKVSCKASGYTFTNYGLNWVRQAPGQGLEWMGWINPYTGEPTYADDFKGRFVFSLDTSVSTAYLQICSLKAEDTAVYYCAREGYGNYIFPYWGQGTLVTVSS VL: DIVMTQTPLSLSVTPGQPASISCRASESVDTYANSLMHWYLQKPGQPPQLLIYRASNLESGVPDRFSGSGSGTDFTLKISRVEAEDVGVYYCQQTNEDPRTFGQGTKLEIK	0.632
